# Laboratory results: publication PMC4144708 (Biochemistry, 2014)
# B1: yeast phosphodiesterase-1 (yPDE1), full length (residues 1-369) (enzyme, Saccharomyces cerevisiae, UniProt P22434 1-369, looked up)
# chain: MVVFEITILGANGGPTEYGTQCFILKPARTEDPELIAVDGGAGMYQLREMLVQGRNENEGDDELVPSFYEHDREPIEFFIDSKLNIQKGLSKSLLQSLKRQGEHFESANTMKKTYEVFQGITDYYITHPHLDHISGLVVNSPSIYEQENSKKKTIWGLPHTIDVLQKHVFNDLIWPDLTAERSRKLKLKCLNPKEVQKCTIFPWDVIPFKVHHGIGVKTGAPVYSTFYIFRDRKSKDCIIVCGDVEQDRRESEESLLEEFWSYVAENIPLVHLKGILVECSCPLSSKPEQLYGHLSPIYLINELSNLNTLYNSSKGLSGLNVIVTHVKSTPAKRDPRLTILEELRFLAEERNLGDLRISIALEGHTLFL
# What was measured:
# [1] = substrate: [H][C@@]12COP(=O)(O)O[C@@]1([H])[C@@H](O)[C@H](n1cnc3c(=O)[nH]c(N)nc31)O2; assay: [3H]cGMP hydrolysis, scintillation counting, Michaelis-Menten fit; type: biochemical, Saccharomyces cerevisiae; conditions: 50 mM Tris-HCl pH 7.5, room temperature, no added ion, labelled compound
# SEC = target: the molecule itself; assay: SEC
protein,measurement,setting,value
B1,Km,[1],104.7 ± 10.2 µM
same,kcat,[1],11.8 ± 1 s⁻¹
same,kcat/Km,[1],113000 M⁻¹ s⁻¹
same,stoichiometry N,SEC,2
